Like-named read-outs stand apart in the source and are kept apart here.
Row | Substance | degradation_or_half_life (O-GlcNAc at S554) | degradation_or_half_life (O-GlcNAc at T553)
1 | ERα: GREB1-KO | decreases | decreases
2 | ERα: ERα-2M (T553A + S554A) in GREB1-KO cells | no change | no change
